Data on one substance can be found in patent US20040014055A1.

Experiment [1] addresses HER1/2 VA (Homo sapiens (Human)) (UniProt P00533).
Experiment [2] concerns the target chimera EGF-R/ERBB2 (HER 1/2) (Homo sapiens (Human)) (UniProt P00533).

Consider Erbin of the MDCK cells, for which the basolateral localisation of the receptor on MDCK transfectants (biotinylation of the cell surface, autoradiography) (% basolateral) was found to be 53 in experiment [1] and 83 in experiment [2].
